To fix the notation:
T1: PUF4 RNA-binding domain (Saccharomyces cerevisiae, UniProt P25339 537-888)
T1 sequence: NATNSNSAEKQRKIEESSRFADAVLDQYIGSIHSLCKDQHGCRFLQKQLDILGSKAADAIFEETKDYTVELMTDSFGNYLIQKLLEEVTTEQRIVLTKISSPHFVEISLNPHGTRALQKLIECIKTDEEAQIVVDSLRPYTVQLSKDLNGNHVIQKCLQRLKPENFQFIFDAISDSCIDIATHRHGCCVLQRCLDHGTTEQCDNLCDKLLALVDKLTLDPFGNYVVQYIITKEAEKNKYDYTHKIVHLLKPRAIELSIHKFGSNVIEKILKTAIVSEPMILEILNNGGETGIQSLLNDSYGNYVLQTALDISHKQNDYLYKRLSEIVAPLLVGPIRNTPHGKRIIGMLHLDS

B1: Ia_S1_P3E.1_K3.1_C3.1_H3.1_[T1A]_A3.1_F3.1_T3.1 (ssRNA)
RNA: UCUCUUAGUAUAUAUCUCUU
B2: Ib_S2_P4E.1_K4.1_C4.1_H4.1_[G2A]_[T3A]_A4.1_F4.1_T4.1 (ssRNA)
RNA: UUUGAUUAAUAUGAUAUCGUUCUUUCUUAAAUAUUAUUCUUUCUCGAUAUCAUAUUAAUCUUU
B3: Ib_S2_P4E.1_K4.1_C4.1_H4.1_[G2A]_[A4C]_A4.1_F4.1_T4.1 (ssRNA)
RNA: UUUGAUUAAUAUGAUAUCGUUCUUUCUUAUCUAUUAUUCUUUCUCGAUAUCAUAUUAAUCUUU
B4: Ib_S2_P4E.1_K4.1_C4.1_H4.1_[T1G]_A4.1_[T7A]_F4.1_T4.1 (ssRNA)
RNA: UUUGAUUAAUAUGAUAUCGUUCUUUCUGGUAUAAUAUUCUUUCUCGAUAUCAUAUUAAUCUUU
B5: Ib_S2_P4E.1_K4.1_C4.1_H4.1_[A4C]_A4.1_[T7G]_F4.1_T4.1 (ssRNA)
RNA: UUUGAUUAAUAUGAUAUCGUUCUUUCUUGUCUAGUAUUCUUUCUCGAUAUCAUAUUAAUCUUU
B6: Ib_S2_P4E.1_K4.1_C4.1_H4.1_[T1C]_A4.1_[A6G]_F4.1_T4.1 (ssRNA)
RNA: UUUGAUUAAUAUGAUAUCGUUCUUUCUCGUAUGUUAUUCUUUCUCGAUAUCAUAUUAAUCUUU
B7: Ib_S2_P4E.1_K4.1_C4.1_H4.1_[T1A]_A4.1_[T7G]_F4.1_T4.1 (ssRNA)
RNA: UUUGAUUAAUAUGAUAUCGUUCUUUCUAGUAUAGUAUUCUUUCUCGAUAUCAUAUUAAUCUUU
B8: Ib_S2_P4E.1_K4.1_C4.1_H4.1_[T1G]_A4.1_[A6T]_F4.1_T4.1 (ssRNA)
RNA: UUUGAUUAAUAUGAUAUCGUUCUUUCUGGUAUUUUAUUCUUUCUCGAUAUCAUAUUAAUCUUU
B9: Ib_S2_P4E.1_K4.1_C4.1_H4.1_[G2T]_A4.1_[T5A]_F4.1_T4.1 (ssRNA)
RNA: UUUGAUUAAUAUGAUAUCGUUCUUUCUUUUAAAUUAUUCUUUCUCGAUAUCAUAUUAAUCUUU
B10: Ia_S2_P4E.1_K4.1_C4.1_H4.1_[A4T]_A4.1_F4.1_T4.1 (ssRNA)
RNA: UUUGAUUAAUAUGAUAUCGUUCUUUCUUGUUUAUUAUUCUUUCUCGAUAUCAUAUUAAUCUUU
B11: Ib_S2_P4E.1_K4.1_C4.1_H4.1_[G2A]_[A4T]_A4.1_F4.1_T4.1 (ssRNA)
RNA: UUUGAUUAAUAUGAUAUCGUUCUUUCUUAUUUAUUAUUCUUUCUCGAUAUCAUAUUAAUCUUU
B12: Ib_S2_P4E.1_K4.1_C4.1_H4.1_[A4T]_A4.1_[A6G]_F4.1_T4.1 (ssRNA)
RNA: UUUGAUUAAUAUGAUAUCGUUCUUUCUUGUUUGUUAUUCUUUCUCGAUAUCAUAUUAAUCUUU
B13: Ib_S2_P4E.1_K4.1_C4.1_H4.1_[A4T]_A4.1_[A6C]_F4.1_T4.1 (ssRNA)
RNA: UUUGAUUAAUAUGAUAUCGUUCUUUCUUGUUUCUUAUUCUUUCUCGAUAUCAUAUUAAUCUUU
B14: Ib_S2_P4E.1_K4.1_C4.1_H4.1_[G2C]_A4.1_[A6G]_F4.1_T4.1 (ssRNA)
RNA: UUUGAUUAAUAUGAUAUCGUUCUUUCUUCUAUGUUAUUCUUUCUCGAUAUCAUAUUAAUCUUU
B15: Ic_S2_P4E.1_K4.1_C4.1_H4.1_A4.1_[T5A]_F4.1_T4.1 (ssRNA)
RNA: UUUGAUUAAUAUGAUAUCGUUCUUUCUUGUAAAUUAUUCUUUCUCGAUAUCAUAUUAAUCUUU
B16: Ib_S2_P4E.1_K4.1_C4.1_H4.1_[G2T]_A4.1_[A6G]_F4.1_T4.1 (ssRNA)
RNA: UUUGAUUAAUAUGAUAUCGUUCUUUCUUUUAUGUUAUUCUUUCUCGAUAUCAUAUUAAUCUUU
B17: Ib_S2_P4E.1_K4.1_C4.1_H4.1_[T3C]_A4.1_[T7G]_F4.1_T4.1 (ssRNA)
RNA: UUUGAUUAAUAUGAUAUCGUUCUUUCUUGCAUAGUAUUCUUUCUCGAUAUCAUAUUAAUCUUU
B18: Ib_S2_P4E.1_K4.1_C4.1_H4.1_[T3C]_A4.1_[A6G]_F4.1_T4.1 (ssRNA)
RNA: UUUGAUUAAUAUGAUAUCGUUCUUUCUUGCAUGUUAUUCUUUCUCGAUAUCAUAUUAAUCUUU
B19: Ib_S2_P4E.1_K4.1_C4.1_H4.1_[G2A]_A4.1_[T7G]_F4.1_T4.1 (ssRNA)
RNA: UUUGAUUAAUAUGAUAUCGUUCUUUCUUAUAUAGUAUUCUUUCUCGAUAUCAUAUUAAUCUUU
B20: Ib_S2_P4E.1_K4.1_C4.1_H4.1_[G2T]_A4.1_[A6C]_F4.1_T4.1 (ssRNA)
RNA: UUUGAUUAAUAUGAUAUCGUUCUUUCUUUUAUCUUAUUCUUUCUCGAUAUCAUAUUAAUCUUU
B21: Ib_S2_P4E.1_K4.1_C4.1_H4.1_[A4G]_A4.1_[T7G]_F4.1_T4.1 (ssRNA)
RNA: UUUGAUUAAUAUGAUAUCGUUCUUUCUUGUGUAGUAUUCUUUCUCGAUAUCAUAUUAAUCUUU
B22: Ib_S2_P4E.1_K4.1_C4.1_H4.1_[A4G]_A4.1_[T7A]_F4.1_T4.1 (ssRNA)
RNA: UUUGAUUAAUAUGAUAUCGUUCUUUCUUGUGUAAUAUUCUUUCUCGAUAUCAUAUUAAUCUUU
B23: Ib_S2_P4E.1_K4.1_C4.1_H4.1_[T3C]_[A4C]_A4.1_F4.1_T4.1 (ssRNA)
RNA: UUUGAUUAAUAUGAUAUCGUUCUUUCUUGCCUAUUAUUCUUUCUCGAUAUCAUAUUAAUCUUU
B24: Ia_S2_P4E.1_K4.1_C4.1_H4.1_[G2T]_A4.1_F4.1_T4.1 (ssRNA)
RNA: UUUGAUUAAUAUGAUAUCGUUCUUUCUUUUAUAUUAUUCUUUCUCGAUAUCAUAUUAAUCUUU
B25: Ib_S2_P4E.1_K4.1_C4.1_H4.1_[G2T]_[A4T]_A4.1_F4.1_T4.1 (ssRNA)
RNA: UUUGAUUAAUAUGAUAUCGUUCUUUCUUUUUUAUUAUUCUUUCUCGAUAUCAUAUUAAUCUUU
B26: Ib_S2_P4E.1_K4.1_C4.1_H4.1_[A4G]_A4.1_[A6T]_F4.1_T4.1 (ssRNA)
RNA: UUUGAUUAAUAUGAUAUCGUUCUUUCUUGUGUUUUAUUCUUUCUCGAUAUCAUAUUAAUCUUU
B27: Ib_S2_P4E.1_K4.1_C4.1_H4.1_[T3C]_[A4T]_A4.1_F4.1_T4.1 (ssRNA)
RNA: UUUGAUUAAUAUGAUAUCGUUCUUUCUUGCUUAUUAUUCUUUCUCGAUAUCAUAUUAAUCUUU
B28: Ib_S2_P4E.1_K4.1_C4.1_H4.1_[A4G]_A4.1_[A6C]_F4.1_T4.1 (ssRNA)
RNA: UUUGAUUAAUAUGAUAUCGUUCUUUCUUGUGUCUUAUUCUUUCUCGAUAUCAUAUUAAUCUUU
B29: Ib_S2_P4E.1_K4.1_C4.1_H4.1_[T1A]_A4.1_[A6T]_F4.1_T4.1 (ssRNA)
RNA: UUUGAUUAAUAUGAUAUCGUUCUUUCUAGUAUUUUAUUCUUUCUCGAUAUCAUAUUAAUCUUU
B30: Ib_S2_P4E.1_K4.1_C4.1_H4.1_[G2A]_A4.1_[A6C]_F4.1_T4.1 (ssRNA)
RNA: UUUGAUUAAUAUGAUAUCGUUCUUUCUUAUAUCUUAUUCUUUCUCGAUAUCAUAUUAAUCUUU
B31: Ib_S2_P4E.1_K4.1_C4.1_H4.1_[T1G]_A4.1_[T5C]_F4.1_T4.1 (ssRNA)
RNA: UUUGAUUAAUAUGAUAUCGUUCUUUCUGGUACAUUAUUCUUUCUCGAUAUCAUAUUAAUCUUU
B32: Ib_S2_P4E.1_K4.1_C4.1_H4.1_[T3C]_A4.1_[A6C]_F4.1_T4.1 (ssRNA)
RNA: UUUGAUUAAUAUGAUAUCGUUCUUUCUUGCAUCUUAUUCUUUCUCGAUAUCAUAUUAAUCUUU
B33: Ib_S2_P4E.1_K4.1_C4.1_H4.1_[A4C]_A4.1_[A6T]_F4.1_T4.1 (ssRNA)
RNA: UUUGAUUAAUAUGAUAUCGUUCUUUCUUGUCUUUUAUUCUUUCUCGAUAUCAUAUUAAUCUUU
B34: Ib_S2_P4E.1_K4.1_C4.1_H4.1_[T1A]_A4.1_[T5A]_F4.1_T4.1 (ssRNA)
RNA: UUUGAUUAAUAUGAUAUCGUUCUUUCUAGUAAAUUAUUCUUUCUCGAUAUCAUAUUAAUCUUU
B35: Ib_S2_P4E.1_K4.1_C4.1_H4.1_[A4G]_A4.1_[T7C]_F4.1_T4.1 (ssRNA)
RNA: UUUGAUUAAUAUGAUAUCGUUCUUUCUUGUGUACUAUUCUUUCUCGAUAUCAUAUUAAUCUUU
B36: Ib_S2_P4E.1_K4.1_C4.1_H4.1_[G2T]_[A4C]_A4.1_F4.1_T4.1 (ssRNA)
RNA: UUUGAUUAAUAUGAUAUCGUUCUUUCUUUUCUAUUAUUCUUUCUCGAUAUCAUAUUAAUCUUU
B37: Ib_S2_P4E.1_K4.1_C4.1_H4.1_[T1C]_A4.1_[T7G]_F4.1_T4.1 (ssRNA)
RNA: UUUGAUUAAUAUGAUAUCGUUCUUUCUCGUAUAGUAUUCUUUCUCGAUAUCAUAUUAAUCUUU
B38: Ib_S2_P4E.1_K4.1_C4.1_H4.1_[T1C]_A4.1_[A6T]_F4.1_T4.1 (ssRNA)
RNA: UUUGAUUAAUAUGAUAUCGUUCUUUCUCGUAUUUUAUUCUUUCUCGAUAUCAUAUUAAUCUUU
B39: Ib_S2_P4E.1_K4.1_C4.1_H4.1_[G2A]_[A4G]_A4.1_F4.1_T4.1 (ssRNA)
RNA: UUUGAUUAAUAUGAUAUCGUUCUUUCUUAUGUAUUAUUCUUUCUCGAUAUCAUAUUAAUCUUU
B40: Ib_S2_P4E.1_K4.1_C4.1_H4.1_[G2C]_A4.1_[T7C]_F4.1_T4.1 (ssRNA)
RNA: UUUGAUUAAUAUGAUAUCGUUCUUUCUUCUAUACUAUUCUUUCUCGAUAUCAUAUUAAUCUUU
B41: Ib_S2_P4E.1_K4.1_C4.1_H4.1_[T3C]_A4.1_[T5C]_F4.1_T4.1 (ssRNA)
RNA: UUUGAUUAAUAUGAUAUCGUUCUUUCUUGCACAUUAUUCUUUCUCGAUAUCAUAUUAAUCUUU
B42: Ia_S2_P4E.1_K4.1_C4.1_H4.1_[A4C]_A4.1_F4.1_T4.1 (ssRNA)
RNA: UUUGAUUAAUAUGAUAUCGUUCUUUCUUGUCUAUUAUUCUUUCUCGAUAUCAUAUUAAUCUUU
B43: Ib_S2_P4E.1_K4.1_C4.1_H4.1_[G2T]_A4.1_[A6T]_F4.1_T4.1 (ssRNA)
RNA: UUUGAUUAAUAUGAUAUCGUUCUUUCUUUUAUUUUAUUCUUUCUCGAUAUCAUAUUAAUCUUU

The term Kd denotes the constant that tells how readily two partners part at equilibrium.

Some results are limits rather than exact numbers.

The data set has as its target T1, PUF4 RNA-binding domain. Put plainly: Mg; RNA-MaP; 20 mM Na-HEPES pH 7.4, 30 mM KOAc, 0.75 mM MgCl2, 0.1% Tween-20, 5% glycerol, 0.1 mg/mL BSA, 2 mM DTT; 25 C; 0.0125-409.6 nM protein. As to conditions: tags: N-His6-TEV cleaved; C-SNAP kept, Cy3B-labelled; label: tethered on chip by stalled RNA polymerase.
B1 displayed a Kd of 742 nM.
On to B2, for which the dissociation constant Kd is greater than 2300 nM.
Then B3, with 1120 nM; and B4, with 303 nM; and B5, with 50.2 nM.
To B6 belongs 795 nM; to B7, 550 nM.
In the case of B8, the Kd stood at 497 nM.
For the molecule B9, binding was put at a Kd of 1900 nM.
To B10 belongs 4.39 nM; to B11, 852 nM; to B12, 55.4 nM.
To B13 belongs 23.1 nM; to B14, 1150 nM.
To B15 belongs 0.874 nM; to B16, greater than 2300 nM.
B17 had an equilibrium dissociation constant (Kd) of 616 nM.
To B18 belongs 777 nM; to B19, 80.2 nM; to B20, greater than 2300 nM.
Then B21, with 5.12 nM.
To B22 belongs 5.79 nM; to B23, 1130 nM; to B24, 137 nM.
Regarding B25, the Kd was greater than 2300 nM.
Then B26, with 4.38 nM; and B27, with 667 nM; and B28, with 8.2 nM.
To B29 belongs 739 nM.
In turn, B30 showed a Kd of 154 nM.
To B31 belongs 21.1 nM.
To B32 belongs 1010 nM.
To B33 belongs 28.6 nM.
Molecule B34 came in with a Kd of 657 nM.
Consider B35, for which binding was characterised by a dissociation constant (Kd) of 1.04 nM.
Then B36, with greater than 2300 nM.
Then B37, with 132 nM.
To B38 belongs 126 nM; to B39, 13.3 nM; to B40, 190 nM.
The molecule B41 showed a dissociation constant (Kd) of 14.6 nM.
To B42 belongs 4.11 nM; to B43, 1390 nM.

These data come from article PMC9352680, “A comprehensive thermodynamic model for RNA binding by the Saccharomyces cerevisiae Pumilio protein PUF4”.
